According to paper doi:10.1101/2024.05.10.593582:

Target: His6-Gp54^Bas11 (phage Bas11)
Experiment: ITC

- Kd: 800 nM
- stoichiometry N: 1
Substance: His6-MBP-CapRel^SJ46 (natural protein)
